Test results reported in patent US5744166A, “Drug delivery compositions” (Danbiosyst UK Limited, priority 1989, dated 1998).

Tests used:
[1] = Intranasal absorption of insulin solutions in anaesthetised rats: blood glucose; format: in vivo, rat (male Wistar); settings: phosphate buffer pH 7.3; for Blood Glucose Levels: 120 minutes after intranasal administration, 16.7 IU/kg insulin, level at administration about 3.5 to 4.0
Experimental: A rat in vivo experimental model, modified from that originally described by Hirai et al., Int. […] Male Wistar rats (Bantin and Kingman) of approximate weight 200-250 g, fasted overnight for about 20 hours, are anesthetized by i.p. injection of 80 mg/kg pentobarbitone sodium (60 mg/ml Sagatal™, May and Baker) with further i.p. injections of 0.05 ml when necessary to maintain a suitable level of anaesthesia. The rats are tracheotomized, the esophagus sealed and the carotid artery and jugular vein cannulated.
The DEAE-dextran used in these experiments has a molecular weight of 500,000.
This will give the same end solutions. […] An insulin solution containing the Laureth-9 enhancer system was prepared in a similar way.
A volume of 20 μl was administered.
Blood samples of 0.2 ml were collected in Fluoride oxalate tubes from the carotid artery at 10 and 5 min. prior to the insulin administration and at 5, 15, 30, 45, 60, 90, 120, 180, 240 and 300 min. post-administration. The samples were kept for a short time on crushed ice until analyzed on a Yellow Springs 23 AM glucose analyser by the glucose oxidase method.

[2] = Effect of pH on insulin/DEAE-dextran solutions (pH and appearance); format: physicochemical
Experimental: Solutions containing DEAE-Dextran 1% w/v and Na-Insulin 167 IU/ml were prepared, separately and combined, in phosphate buffer (pH 7.3) and their pH measured using a Gallenkamp pH stick. The appearance of each solution was noted. The effect of addition of 1M sodium hydroxide solution (NaOH) or 0.1M hydrochloric acid (HCl) was determined.

Substance: Insulin alone: semisynthetic human Na-insulin, 167 IU/ml in phosphate buffer
- Blood Glucose Levels [1]: ~5.1 mmol/L
- Blood Glucose Levels ([1]; listed as insulin solution alone): about 5 mmol/l
- effect on blood glucose level (in words) ([1]; intranasal): does not significantly lower the blood glucose level
- pH at which solution became turbid on addition of acid ([2]; 0.1M HCl): 6.65
- pH at which solution cleared / was clear on addition of acid ([2]; 0.1M HCl): 4.14
- appearance on addition of 1.0M NaOH ([2]; 1.0M NaOH): no effect on solution appearance which remained clear
- pH of solution ([2]; DEAE-dextran 1% w/v and/or Na-insulin 167 IU/ml in phosphate buffer (pH 7.3)): 7.38
- appearance of solution ([2]; as prepared in phosphate buffer, no acid or base added): clear
